A short description of the data set: yeast display, Sf9 membrane polyspecificity reagent, FACS + sequencing; frameworks hold sequencing errors. Summed up:
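Synthetic nanobody libraries on Saccharomyces cerevisiae BJ5465 were galactose-induced for 36–48 hours, stained 1 hour at 4 °C with 10% biotinylated, detergent-solubilized Sf9 membrane reagent and enriched on streptavidin microbeads. FACS then separated cells into low and high (top ~1%) gates by anti-HA (expression) and streptavidin (reagent binding) fluorescence. Genes were colony-PCR amplified, MiSeq 2 × 250 sequenced and CDR-length filtered. A clone's polyreactivity label is that of its gate of origin.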
Regarding “QVQLVESGGGLVQAGGSLRLSCAASGFTFAKYAMGWYRQAPGKERELVAAISSNGGTTYYADSVKGRFTISRDNAKNTDYLQMNSLKPEDTALYYCAAYTYRRPSTFTKVAFDYWGQGSQVTVSS”, the “polyreactivity (PSR sort gate)” value is “high polyreactivity”.

In the case of “QVQLVESGGGLVQAGGSLRLSCAASGFTFALYAMGWYRQAPGKERELVAAITKGGGSTYYADSVKGRFTISRDNAKITVYLQMNSLKPEDTAVYYCAARGRYSAPDYGYWGQGTQVTVSS”, the “polyreactivity (PSR sort gate)” value is “high polyreactivity”. The result for “QVQLVESGGGLVQAGGSLRLSCAASGFTFARNAMGWYRQAPGKERELVAGITSRGSSTSYADSVKGRFTISRDNAKNTVYLQMNSLKPEDTAVYYCAAVPRYRDRGQYGYWGQGTQVTVSS” reads “high polyreactivity”; that for “QVQLVESGGGLVQAGGSLRLSCAASGFTFARYAMGWYRQAPGKERELVAAITSGSSTYYADSVKGRFTISRDNAKNTVYLQMNSLKPEDTAVYYCAARSFLQSYYYWGQGTQVTVSS”, “high polyreactivity”; that for “QVQLVESGGGLVQAGGSLRLSCAASGFTFASNDMGWYIPAPGKERELVSAITKGGGRTYYADSVKGRFTISRDNAKNTVYLQMNSLKPEDTAVYYCAASHDKRRQYFVGQSAFDYWGQGTQVTVSS”, “low polyreactivity”. The result for “QVQLVESGGGLVQAGGSLRLSCAASGFTFASYVMGWYRQAPGKERELVAAISYSGGYTYYADSVKGRFTISRDNAKNTVYLQMNSLKPEDTAVYYCNARYLQGYSGRYGYWGQGTQVTVSS” reads “high polyreactivity”; that for “QVQLVESGGGLVQAGGSLRLSCAASGFTFAVYAMGWYRQAPGKERELVAAISDSGGSTYYADSVKGRFTISRDNAKNTVYLQMNSLKPEDTAVYYCNRDWIVSGYYAYYEFDYWGQGTQVTVSS”, “low polyreactivity”; that for “QVQLVESGGGLVQAGGSLRLSCAASGFTFAVYVMGWYRQAPGKERELVATISFSVGSTYYADSVKGRFTISRDNAKNTVYLQMNSLKPEDTAVYDCNADPPPEYYPDKDNYWGQGTQVTVSS”, “low polyreactivity”. On to “QVQLVESGGGLVQAGGSLRLSCAASGFTFAWYAMGWYRQAPGKERELVAAINWSGGRTYYADSVKGRFTISRDNAKNTVYLQMNSLKPEDTAVYYCAAPHLVKRSEFDYWGQGTQVTVSS”, for which the “polyreactivity (PSR sort gate)” value is given as “high polyreactivity”. For “QVQLVESGGGLVQAGGSLRLSCAASGFTFAYYAMGWYRQAPGKERELVAAITGSGGRTYYADSVKGRFTISRDNAKNTVYLQMNSLKPEDTAVYYCAALTGPYKAQVHGGHTPLDYWGQGTQVTVSS” the value was “low polyreactivity”; for “QVQLVESGGGLVQAGGSLRLSCAASGFTFCRNTMGWYRQAPGKEREFVAAIDWSGGSTTYADSVKGRFTISRDNAKNTVYLQMNSLKPEDTAVYYCAADERRRHYWWGQESDYWGQGTQVNVSS”, “low polyreactivity”; for “QVQLVESGGGLVQAGGSLRLSCAASGFTFDAYTMGWYREAPGKERELVAAINWSGDTTYYADSVKGRFTISRDNAMNTVYLQMNSLKPEDTAVYYCAAVWLNYGVWFDYWGQGTQVTVSS”, “high polyreactivity”.

For “QVQLVESGGGLVQAGGSLRLSCAASGFTFDDYDMGWYRQAPGKERELVAAISWSGGSTYYADSVKGRFTFSRDNAKNTVYLQMNSLKPEDSAVYYCAAERSYGGFDYWGQGTQVTVSS”, the “polyreactivity (PSR sort gate)” value is on record as “low polyreactivity”. The result for “QVQLVESGGGLVQAGGSLRLSCAASGFTFDENAMGWYRQAPGINYSGASTYYADSVKGRFTISRDNAKNTVYFQMNSLKPEDTAVYYCAAEVVAQMNYWGQGTQVTVSS” reads “low polyreactivity”; that for “QVQLVESGGGLVQAGGSLRLSCAASGFTFDFYAMGWYRQAPGKERELVAAINWSGSSTYYADSVKGRFTISRDNAKNTVYLQMNSLKPEDTAVYYCAAQVYYTLFPDVYTMYYWGQGTQVTVSS”, “high polyreactivity”. For “QVQLVESGGGLVQAGGSLRLSCAASGFTFDFYVMGWYRQAPGKERELVAAITSGGGTYYADSVKGRFTISRDNAKNTVYLQMNSLKPEDTAVYYCAVSVTTVSTYDYWGQGTQVTVSS” the value was “low polyreactivity”; for “QVQLVESGGGLVQAGGSLRLSCAASGFTFDKNAMGWYRQAPGKERELVAAINIGSTYYADSVKGRFTISRDNAKNTVYLQMNSLKPEDSAVYYCAKEVPSGYWVNYYYWGQGTQVTVSS”, “low polyreactivity”; for “QVQLVESGGGLVQAGGSLRLSCAASGFTFDSYAMGWYRQAPGKERELVAAITSDGSTYYADSVKGRFTISRDNAKNSVYLQMNSLKPEDTAVYYCAADGISLYATAYDFWGQGTQVTVSS”, “low polyreactivity”. The result for “QVQLVESGGGLVQAGGSLRLSCAASGFTFDSYAMGWYRQAPGKERELVAAITSDGSTYYADSVKGRFTISRDNAKNTVYLQMNSLKPEDTAVYYCAADGRYFRAVFRLYDYWGQGTQVTVSS” reads “low polyreactivity”; that for “QVQLVESGGGLVQAGGSLRLSCAASGFTFDSYAMGWYRQAPGTERELVASISSSGSTNYADSVKGRFTISRDNAKNTVYLQMNSLKPEDTAVYYCAAESRYPFIYEYWGQGTQVTVSS”, “low polyreactivity”; that for “QVQLVESGGGLVQAGGSLRLSCAASGFTFDYNAMGWYRQAPGKERELVASIDQSGGSTYYADSVKGRFTISRDNAKNTVYLQMNSLKPEDTAVYYCAAEGYYTSTYDLYDYYYWGQGTQVTVSS”, “low polyreactivity”. On to “QVQLVESGGGLVQAGGSLRLSCAASGFTFDYYDMGWYRQAPGKERELVAGITYSGGRTRYADSVKGRFTISRDNAKNTVYLQMNSLKPEDTAVYYCAARPGYPYRMNYWGQGTQVTVSS”, for which the “polyreactivity (PSR sort gate)” value was “low polyreactivity”.

As for “QVQLVESGGGLVQAGGSLRLSCAASGFTFDYYTMGWYRQAPGKEREFVAAITWNGGSTYYADSVKGRFTISRYNAKNTVYLQMNSLKPEDSAVYYCAADTTYGINRREYWGQGTQVTVSS”, the “polyreactivity (PSR sort gate)” value is “low polyreactivity”. The result for “QVQLVESGGGLVQAGGSLRLSCAASGFTFEFNVMGWYRQAPGKERELVASIRWGSTSYADSVKGRFTISRDNAKNTVYLQMNSLKPEDTAVYYCAADRSTGLGDDDYWGQGTQVTVSS” reads “low polyreactivity”; that for “QVQLVESGGGLVQAGGSLRLSCAASGFTFEGYAMGWYRQAPGKERDLVAAISSNGGRTYYADSVKGRFTISRDNAKNPVYLQMNSLKPEDTAVYYCNADGYGDYSFLKYRFEYDYWGQGTQVTVSS”, “low polyreactivity”. For “QVQLVESGGGLVQAGGSLRLSCAASGFTFEKYAMGWYRQAPGHERELVASISWSGGRTRYADSVKGRFTISRDNAKNTVYLQMNSLTPEDTAVDYCAASYRYFGRSTVRYDYWGQGTQVTVSS” the value was “high polyreactivity”. With “QVQLVESGGGLVQAGGSLRLSCAASGFTFEKYAMGWYRQAPGKERELVAAITQSAGSTYADSVKGRFTISRDNAKNTVYLQMNSLKPVDTAVYYCAARYRYPYYARYGYWGQGTQVTVSS”, the “polyreactivity (PSR sort gate)” value is “high polyreactivity”. For “QVQLVESGGGLVQAGGSLRLSCAASGFTFEKYVMGWYIQAPGKETEFVAAITRSGGRTYYADSVKGRFTISRDNAKNTVYLQMNSLKPEDTAVYSCNAVTSWAGSLDYWGQGTQVTVSS” the value was “high polyreactivity”; for “QVQLVESGGGLVQAGGSLRLSCAASGFTFERNTMGWYRQAPGKERELVATITRRGTSTYYADSVKGRFTISRDNAKNTVYLQMNSLKPEDTAVYYCARGQYSHRSQAGMDYWGQGTQVTVSS”, “high polyreactivity”. The result for “QVQLVESGGGLVQAGGSLRLSCAASGFTFERYAMGWYRQAPGKERELVAAIDWRGVNTYYADSVKGRFTISRDNAKNTVYLQMNSLKPEDTAVYYCNARAYGRYYWGQGTQVTVSS” reads “high polyreactivity”. With “QVQLVESGGGLVQAGGSLRLSCAASGFTFESNAIGWYRQAPGKERELVAAISSSGGSTYYADSVKGRFTISRDNAKNTVYLQMNSLKPEDTAVYYCNAYSLYYGGYDYWGQGTQVTVSS”, the “polyreactivity (PSR sort gate)” value was “high polyreactivity”. For “QVQLVESGGGLVQAGGSLRLSCAASGFTFESYAMGWYRQAPGKERELVAAISWNGGSSYYADSVKGRFTISRDNAKNTVYLQMNSLKPEDTAVYYCAARGRAPRFRRIGYDYWGQGTQVSVSS” the value was “high polyreactivity”; for “QVQLVESGGGLVQAGGSLRLSCAASGFTFESYAMGWYRQAPGKERELVAAISWNGGSTYYADSVKGRFTISRDNAKNTVYLQMNSLKPEDTAVYYCAARGRAPRFRRIGYDYWGQGTQVTVSS”, “high polyreactivity”.

On to “QVQLVESGGGLVQAGGSLRLSCAASGFTFEYNAMGGYRQDPGKERELVAAITTTGSTYYADSVKGRFTISRDNAKNTVYLQMNSLKPEDTAVYYCAADPVWRGYSYQFDYWGQGTQVTVSS”, for which the “polyreactivity (PSR sort gate)” value was “low polyreactivity”. The result for “QVQLVESGGGLVQAGGSLRLSCAASGFTFEYYAMGWYRQAPWKERELVATITWNGGSTYYADSVKGRFTISRDNAKNTVYFQMNSLKPEDTAVYYCAADEQAYYVRRFDYWGQGTQVTVSS” reads “low polyreactivity”; that for “QVQLVESGGGLVQAGGSLRLSCAASGFTFFINGMGWYRQAPGKERELVAAIRSSGASTYDADSVKGRFTISRDNAKNTVYLQMNSLQPEDTAVYYCAVPLGAVGGPVDYWGQGTQVTVSS”, “low polyreactivity”.

With “QVQLVESGGGLVQAGGSLRLSCAASGFTFFKYAMGWYRQAPGKERELVAAITRNGGRTYYADSVKGRFTISRDNAKNTVYLQMNSLKPEDTAVYYCAAVQYRYGGMDYWGQGTQVTVSS”, the “polyreactivity (PSR sort gate)” value was “high polyreactivity”. For “QVQLVESGGGLVQAGGSLRLSCAASGFTFFQYAKGWYRQAPGKERELVAAISARGGRTYYADSVKGRFTISRDNAKNTVYLQMNSLKPEDTAVYYCAKRTRTIQGHYDYWGQGTQVTVSS” the value was “high polyreactivity”; for “QVQLVESGGGLVQAGGSLRLSCAASGFTFFRNAMGWYRQAPGKEMELVAAISGSGGSTYYADSVKGRFTISRDNAKNTVYLQINSLKPEDTAVYYCATYSYPAKVPEAYNYWGQGSQVTVSS”, “low polyreactivity”. “QVQLVESGGGLVQAGGSLRLSCAASGFTFFRYAMGWYRQAPGKERELVATITRGGSTNYADSVKGRCTISRDNAKNTDYLQMNSLQPEDTAVYYCNKDKKTPTFDYWGQGTQVTVSS”: the “polyreactivity (PSR sort gate)” value was “low polyreactivity”. For “QVQLVESGGGLVQAGGSLRLSCAASGFTFFSYTMGWYRQAPGKERELVAAISKRGSRTYYADSVKGRFTISRDNAKNTVYLQRNSLKPEDTAVYYCAADCGREVVLRREDYWGQGTQVTVSS” the value was “high polyreactivity”.
